Consider 1 substance from patent US20250101076A1.

For this assay, the target named is extracellular domain of the growth hormone receptor (human) (UniProt P10912). Nature of the assay: competition ELISA, plate coated with GHR extracellular domain, inhibition of biotin-hGH binding. Background: ELISA stands for enzyme-linked immunosorbent assay.
Chain of UniProt P10912 (P10912 19-264): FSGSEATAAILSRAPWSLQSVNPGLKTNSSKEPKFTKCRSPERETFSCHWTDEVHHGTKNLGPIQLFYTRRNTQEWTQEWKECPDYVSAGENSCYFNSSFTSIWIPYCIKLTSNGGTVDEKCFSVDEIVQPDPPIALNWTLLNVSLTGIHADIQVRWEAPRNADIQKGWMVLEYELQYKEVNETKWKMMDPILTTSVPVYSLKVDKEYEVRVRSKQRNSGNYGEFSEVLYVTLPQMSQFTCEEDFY

Regarding pegvisomant (ligand), the IC50 (as a rule, the concentration that inhibits the measured activity by half) was determined as 137 nM.
